Experimental data reported in the supplement of paper PMC10567573.
± gives the standard deviation.

Assay: protein stability index of a GFP-peptide fusion (GPS, HEK-293T) (PSI 1-6); higher = more stable
[1] = treatment: DMSO, c terminus: a fixed tail appended
[2] = treatment: MLN4924 1 uM, 8 h, c terminus: a fixed tail appended
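Note: 24-mer peptide tiles fused after GFP, lentivirally expressed, FACS-sorted into six equal bins by GFP/DsRed ratio, decoded by Illumina sequencing, PSI is the read-weighted mean bin number.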

Sequence	protein stability index [1]	protein stability index [2]	protein stability index (treatment: DMSO, c terminus: native)	protein stability index (treatment: MLN4924 1 uM, 8 h, c terminus: native)
GSDAEQSTSGQPYPTSDQEGDPGS [LCOR]	5.53 ± 0.35	5.59 ± 0.28	–	–
GSKVTCRGLLEYFKAYIKIYQGED [ATL3]	2.31 ± 0.14	–	–	–
GSKYYNVEAMYCYLRCIQSEVSFE [SMG5]	3.05 ± 0.94	2.1 ± 0.68	–	–
GSLDLVPGGLTLEEHSLEQVQSMV [SPDEF]	4.35 ± 0.38	4.66 ± 0.21	–	–
GSRSNGMWAHSMTVQDYQDLIDRG [ATE1]	3.92 ± 0.29	4.08 ± 0.29	–	–
GTKQGHLLLYRIRKDVGCNRFEVT [VPS39]	2.12 ± 0.37	2.41 ± 0.28	–	–
GTLDNSKSMKPYNYCSAYESFYES [NEUROD6]	3.02 ± 0.41	3.12 ± 0.35	–	–
GTTYLPGIVGLNNIKANDYANAVL [USP39]	2.47 ± 0.097	2.44 ± 0.23	–	–
GVADFSATYLRCQLLLIKALQEKL [INTS4]	2.77 ± 0.42	2.65 ± 0.48	–	–
GVLDALHVLEGLFRTDPEAKVKLV [ZSWIM9]	2.28 ± 0.23	2.25 ± 0.18	–	–
GVNTVFHCASPPPSSNNKELFYRV [NSDHL]	2.53 ± 0.23	2.4 ± 0.1	–	–
GVSFHIDSAELEPGSQTAVKNSNR [FBXO34]	4.71 ± 0.26	5.03 ± 0.38	–	–
GWSTPPKCRSTISAEKCGPPPPID [CFHR2]	3.72 ± 0.38	3.93 ± 0.25	–	–
GYGIYYFIYSTWKGRTIYLEDIYV [SAT2]	2.9 ± 0.16	2.78 ± 0.43	–	–
GYRQQKAYIATQGPLAETTEDFWR [PTPRD]	3.28 ± 0.22	3.36 ± 0.42	–	–
GYSSLDQSPDEKPLVALDTDSDDD [FAM219A]	5.69 ± 0.17	5.48 ± 0.31	–	–
GYWRVRLWNGDKYAATTTPFTPLH [TRIM39]	2.08 ± 0.42	2.35 ± 0.93	–	–
HALRKKQLKRQKRDYIHSLKLLNV [FAM9B]	2.6 ± 0.42	2.84 ± 0.27	–	–
HCWDVAGAGIIVTEAGGVLMDVTG [IMPA1]	2.4 ± 0.25	2.52 ± 0.51	–	–
HDPLYGKLFSTYLRPPHTSRGTSQ [LPCAT4]	3.27 ± 0.34	3.76 ± 0.21	–	–
HEEERINIYCLNCEVPTCSLCKVF [TRIM55]	2.95 ± 0.39	3.16 ± 0.32	–	–
HEEQLQRLKLLKDREVDAATSATS [FBF1]	5.18 ± 0.28	5.25 ± 0.24	–	–

Sequence	protein stability index [1]	protein stability index [2]	protein stability index (treatment: DMSO, c terminus: native)	protein stability index (treatment: MLN4924 1 uM, 8 h, c terminus: native)
HGDARATGREMHGKNWSKLCKDCQ [TPPP]	4.18 ± 0.13	4.53 ± 0.23	–	–
HGVELHSDVIEYAKQKLDFFIRTS [PCMTD2]	2.37 ± 0.2	2.48 ± 0.29	–	–
HHKVYDLTKFLEEHPGGEEVLREQ [CYB5A]	4.44 ± 0.27	4.65 ± 0.19	–	–
HHVEREKDHSSSRPSSPRPQKASP [BTBD10]	5.36 ± 0.28	5.54 ± 0.14	–	–
HIDPDVLYPSLNVTSFDSVVPEKL [ALG2]	3.83 ± 0.25	3.91 ± 0.21	–	–
HKLQEEKAFREEMKIFREKIEDFR [CCDC70]	3.38 ± 0.3	3.61 ± 0.31	–	–
HKPKNSEELYKEIDGVATTRYSVA [PTPRD]	4.43 ± 0.17	4.66 ± 0.21	–	–
HKYNTTSTSYSPLASLPLKADTKG [PLAGL1]	4.23 ± 0.16	4.41 ± 0.2	–	–
HLADLVSYSIQKVIGFAKMIPGFR [VDR]	4.2 ± 0.43	4.18 ± 0.25	–	–
HLHLETFKAVLDGLDVLLAQEVRP [PRAME]	2.18 ± 0.43	1.98 ± 0.29	–	–
HLVEETRIHVLPSLNPDGYEKAYE [CPXM2]	4.46 ± 0.15	4.34 ± 0.046	–	–
HPGSGTKVQFNLQFTKPNASLGDV [SASS6]	3.17 ± 0.44	3.23 ± 0.23	–	–
HQLYTSSSHHSHSYIGLPYADHNY [KMT2E]	2.5 ± 0.042	2.53 ± 0.21	–	–
HRRGLGVDSKPELQRVLEHRRRNQ [FAM107A]	4.01 ± 0.4	4.11 ± 0.31	–	–
HSHPPEIKDQGGAGEGLVRSANGF [MAP2]	4.7 ± 0.14	4.76 ± 0.2	–	–
HSRRHESYSRGYSYHDGYGEALGR [RBMY1A1]	3.14 ± 0.3	3.24 ± 0.36	–	–
HTLILMFIWFVCSLVYYGLTLSAG [SLC22A15]	2.42 ± 0.79	2.16 ± 0.36	–	–
HVHCFTCAACKTPIRNRAFYMEEG [PDLIM7]	2.24 ± 0.11	2.47 ± 0.23	–	–
HVNFSHLTTKDYMEMYNVIMTVKE [SLC6A17]	2.41 ± 0.32	2.44 ± 0.52	–	–
IAGGLAGMGGIQNEKETMQSLNDR [KRT18]	4.83 ± 0.24	4.81 ± 0.33	–	–
IANCKLFRLQLQQGLFRIRVHSP [GAN]	–	–	3.45 ± 0.51	2.6 ± 0.38
IARVADGLPLAASMQEDEQSGRDL [SEC22B]	5.24 ± 0.22	5.33 ± 0.15	–	–

Sequence	protein stability index [1]	protein stability index [2]	protein stability index (treatment: DMSO, c terminus: native)	protein stability index (treatment: MLN4924 1 uM, 8 h, c terminus: native)
IASIGRHRYIAYMANQEAAIQAFL [IQUB]	2.39 ± 0.73	2.17 ± 0.36	–	–
ICCDKCSVWQHIDCMGIDRQHIPD [KMT2E]	2.7 ± 0.28	2.87 ± 0.43	–	–
IDEHHFVAVALRKPDGSRHQDVPS [AASDHPPT]	4 ± 0.17	4.07 ± 0.19	–	–
IDNANRILGPAYFVTYVFFVFFVL [PKD2L1]	2.67 ± 0.71	2.67 ± 0.6	–	–
IDQWSMLGDMQTAREGAGLVVASG [KLHL12]	3.36 ± 0.15	3.52 ± 0.051	–	–
IENLAKANPQYTVYSQASTMSIPV [PPP2R5C]	2.8 ± 0.22	2.65 ± 0.25	–	–
IFRDNQWVGFDDVESFKTKVSYLK [CHIT1]	2.54 ± 0.34	2.81 ± 0.24	–	–
IGKWFDFKLFFNGRPGIVAWTLIN [DHCR7]	2.56 ± 0.42	2.46 ± 0.18	–	–
IGSVEEQLAQLRCEMEQQSQEYQI [KRT16]	4.82 ± 0.15	4.85 ± 0.18	–	–
IHFIAVAVCLLGVGTMVGADILAG [SLC35F2]	2.8 ± 0.18	3.31 ± 0.45	–	–
IIMWDIGGRKGRTLLLQGHHDKVQ [WDFY1]	2.08 ± 0.55	2.2 ± 0.12	–	–
IIYMGSFMLMLLVLGIQVKCFHEI [CDS1]	3.57 ± 0.85	3.27 ± 0.34	–	–
IKHVLQTFGPIPEFSRATAEKVNQ [CRYL1]	3.39 ± 0.44	3.43 ± 0.51	–	–
IKWLKEAEEESSGGEEEDEDENIE [EIF5]	5.41 ± 0.14	5.49 ± 0.25	–	–
ILIIISVIVQIKQPRKKYVQRKSD [NETO1]	2.86 ± 0.64	2.52 ± 0.36	–	–
ILLKVKTEIEEELKSLDKEISEAF [BCL2L13]	2.75 ± 0.36	3.19 ± 0.33	–	–
ILNFNDLMSSAVPMTPEDPSFWDC [AASDHPPT]	2.71 ± 0.31	2.92 ± 0.2	–	–
ILSEEGRRQQAKLKELQAIAERLG [KCNAB2]	3.57 ± 0.38	3.73 ± 0.3	–	–
ILSGARVNAKDNMWLTPLHRAVAS [ANKRD44]	2.34 ± 0.1	2.4 ± 0.27	–	–
ILSGKFTILNVRDPTGASIALFTA [PTPN9]	2.84 ± 0.73	3.19 ± 0.74	–	–
ILSKVQKNHVGKPLLKMDLNSEQA [FAM98B]	3.62 ± 0.31	3.46 ± 0.47	–	–
